Experimental data reported in patent US20140242093, “METHODS AND COMPOSITIONS FOR MODULATING THE INNATE IMMUNE RESPONSE AND/OR MYOGENESIS IN A MAMMALIAN SUBJECT” (FRED HUTCHINSON CANCER RESEARCH CENTER, published 2014).

B1: TRIM48mut (dsDNA)
DNA 1: AGGAGTGATGATACTTTTATGAGCCGTGCAA
DNA 2: TTGCACGGCTCATAAAAGTATCATCACTCCT
B2: THE1Dmut (dsDNA)
DNA 1: CCTGTGGGAGGTACTCCTATGATGGAGGCAG
DNA 2: CTGCCTCCATCATAGGAGTACCTCCCACAGG
B3: CSF1Rmut (dsDNA)
DNA 1: CCAGGTGGAGATACTTGTATGATGGGGGCAG
DNA 2: CTGCCCCCATCATACAAGTATCTCCACCTGG

Biological target: DUX4-fl (Homo sapiens, UniProt Q9UBX2 SEQ:1-424)
Assay: EMSA; cold mutant does not compete
Conditions: tags: pCS2-DUX4-fl, TNT SP6 wheat germ
Description: EMSA was performed with ³²P-labeled 31-bp oligonucleotides from endogenous genomic sequences containing the putative DUX4 binding site as probes (sequences below; only forward shown). Radiolabeled probes were incubated with in vitro translated protein generated from pCS2-DUX4-fl or pCS2-DUX4-s² vectors using the TNT SP6 Coupled Wheat Germ Extract System (Promega) according to manufacturer's instructions. To obtain supershift of protein-DNA complexes, 0.1 μg of E14-3 anti-DUX4 rabbit monoclonal antibody was added to the mixtures. For competition experiments, excess unlabeled probes of either wild-type or mutant sequences were included in the binding reaction. The gels were prepared and run as previously described (Knoepfler et al., 1999).
Electrophoretic mobility shift assay (EMSA) confirmed that DUX4-fl binds the core motifs present in both MaLR-associated and non-repeat associated sites: TRIM48 oligos—the TAATTTAATCA (SEQ ID NO:169) core sequence found near the TRIM48 gene, CSF1R oligos—the TAATTGAATCA (SEQ ID NO:171) core sequence found within the LTR of a THE1B retroelement near the CSF1R gene, and THE1D oligos—the TAATCCAATCA (SEQ ID NO:172) core sequence found within the LTR of the THE1D retroelement. […] Because the DUX4-s alternative splice form retains the N-terminal DNA-binding homeodomains, the inventors hypothesized that it would bind to the same sites as DUX4-fl. EMSA confirmed that DUX4-s specifically binds the same core binding site as DUX4-fl in vitro.

Chain of DUX4-fl (Q9UBX2 whole entry): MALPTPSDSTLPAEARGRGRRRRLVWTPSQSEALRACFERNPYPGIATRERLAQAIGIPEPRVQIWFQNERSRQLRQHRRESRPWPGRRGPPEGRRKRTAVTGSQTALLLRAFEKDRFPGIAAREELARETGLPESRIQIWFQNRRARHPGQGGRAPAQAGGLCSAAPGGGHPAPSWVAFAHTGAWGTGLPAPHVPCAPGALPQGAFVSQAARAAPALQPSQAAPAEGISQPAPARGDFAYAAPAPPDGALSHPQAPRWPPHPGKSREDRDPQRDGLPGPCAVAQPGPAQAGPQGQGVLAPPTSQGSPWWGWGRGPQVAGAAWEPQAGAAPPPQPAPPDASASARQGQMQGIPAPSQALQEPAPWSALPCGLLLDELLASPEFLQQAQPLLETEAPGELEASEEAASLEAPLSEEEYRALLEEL

| Binder | binding result |
| --- | --- |
| B1 | no binding |
| B2 | no binding |
| B3 | no binding |
